Tests used:
PARP2 = PARP2 (mouse (murine), UniProt O88554 1-559); test: photoaffinity crosslinking; 100 nM protein, 100 nM DNA, EDTA; UV photo-crosslinking, 100 nM 5'-32P photoreactive DNA, EDTA present, Pol beta carried over from probe synthesis, SDS-PAGE; binding buffer, pH and temperature not given in the material; settings: protein: recombinant; label: 5'-32P on strand 1; nicked duplex of 3 strands (upstream, downstream, template), blunt outer ends, 5'-dRP at nick
PARP1 = PARP1 (human, UniProt P09874 1-1014); test: as above; settings: protein: recombinant; label: 5'-32P on strand 1; nicked duplex of 3 strands (upstream, downstream, template), blunt outer ends, 5'-dRP at nick
Sequence of PARP1 (P09874 whole entry): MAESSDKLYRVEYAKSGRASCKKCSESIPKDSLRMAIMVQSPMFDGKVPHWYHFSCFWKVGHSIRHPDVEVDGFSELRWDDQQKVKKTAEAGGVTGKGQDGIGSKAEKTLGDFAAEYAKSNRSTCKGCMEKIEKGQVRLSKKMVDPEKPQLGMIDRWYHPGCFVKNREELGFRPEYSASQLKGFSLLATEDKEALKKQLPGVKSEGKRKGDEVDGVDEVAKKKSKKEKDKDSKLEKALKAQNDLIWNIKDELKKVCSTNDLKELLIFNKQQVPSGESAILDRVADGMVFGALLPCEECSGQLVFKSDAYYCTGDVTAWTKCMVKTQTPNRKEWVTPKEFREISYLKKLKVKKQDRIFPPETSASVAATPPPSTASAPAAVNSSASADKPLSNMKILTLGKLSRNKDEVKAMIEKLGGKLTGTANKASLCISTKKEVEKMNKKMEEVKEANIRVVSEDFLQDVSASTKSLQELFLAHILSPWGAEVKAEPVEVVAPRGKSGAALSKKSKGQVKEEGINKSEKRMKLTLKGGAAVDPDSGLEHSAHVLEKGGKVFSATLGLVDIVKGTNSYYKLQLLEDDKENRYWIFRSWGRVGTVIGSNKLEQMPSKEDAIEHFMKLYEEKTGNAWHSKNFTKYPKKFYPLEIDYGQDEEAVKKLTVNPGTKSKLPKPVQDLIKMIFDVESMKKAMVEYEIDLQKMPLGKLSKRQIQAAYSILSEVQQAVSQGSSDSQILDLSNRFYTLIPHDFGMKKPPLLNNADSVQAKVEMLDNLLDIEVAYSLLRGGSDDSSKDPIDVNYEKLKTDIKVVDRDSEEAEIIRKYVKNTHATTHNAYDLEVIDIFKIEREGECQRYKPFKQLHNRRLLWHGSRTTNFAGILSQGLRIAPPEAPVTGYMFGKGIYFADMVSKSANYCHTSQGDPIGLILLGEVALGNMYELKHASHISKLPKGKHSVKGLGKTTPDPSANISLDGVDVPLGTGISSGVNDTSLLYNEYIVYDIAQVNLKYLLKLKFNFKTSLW

HMGB1 = HMGB1 (calf (thymus), UniProt P10103 2-215); test: photoaffinity crosslinking; 300 nM protein, 100 nM DNA, EDTA; more efficient than other DNAs; UV photo-crosslinking, 100 nM 5'-32P photoreactive DNA, EDTA present, Pol beta carried over from probe synthesis, SDS-PAGE; binding buffer, pH and temperature not given in the material; settings: protein: native; label: 5'-32P on strand 1; nicked duplex of 3 strands, blunt outer ends, 6-nt 5' single-stranded flap (GATAAC) at nick
Sequence of HMGB1 (P10103 2-215): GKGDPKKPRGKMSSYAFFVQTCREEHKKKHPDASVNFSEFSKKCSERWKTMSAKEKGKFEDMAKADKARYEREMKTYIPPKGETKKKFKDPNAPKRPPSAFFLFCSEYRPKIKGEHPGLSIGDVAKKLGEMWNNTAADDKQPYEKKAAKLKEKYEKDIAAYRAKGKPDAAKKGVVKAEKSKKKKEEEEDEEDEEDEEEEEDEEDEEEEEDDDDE

Sequence of PARP2 (O88554 whole entry): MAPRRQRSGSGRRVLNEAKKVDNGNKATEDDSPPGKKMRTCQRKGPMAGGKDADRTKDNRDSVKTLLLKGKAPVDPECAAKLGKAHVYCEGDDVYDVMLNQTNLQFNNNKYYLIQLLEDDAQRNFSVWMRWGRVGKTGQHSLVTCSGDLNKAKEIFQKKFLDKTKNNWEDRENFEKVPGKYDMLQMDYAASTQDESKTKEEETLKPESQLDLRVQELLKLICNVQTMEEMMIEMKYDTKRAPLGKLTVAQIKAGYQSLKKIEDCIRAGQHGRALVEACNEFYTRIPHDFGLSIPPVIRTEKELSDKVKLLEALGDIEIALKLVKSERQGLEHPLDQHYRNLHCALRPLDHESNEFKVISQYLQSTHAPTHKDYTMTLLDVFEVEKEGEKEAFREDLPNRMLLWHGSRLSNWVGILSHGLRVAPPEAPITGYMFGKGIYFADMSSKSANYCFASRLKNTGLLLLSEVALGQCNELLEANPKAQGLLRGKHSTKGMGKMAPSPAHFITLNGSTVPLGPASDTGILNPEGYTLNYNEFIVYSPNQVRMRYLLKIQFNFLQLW

Binder | binding result (PARP2) | binding result (PARP1) | binding result (HMGB1)
Pho-dRP (dsDNA, strand 1 3'-terminal C is FAP-dCMP (photoreactive exo-N-substituted dC); strand 2 carries 5'-dRP (phosphate-linked, from Ung-treated 5'-pU)) DNA 1: GGCGACTAAGCCGGGC DNA 2: AACGCCAGGGCCTCCC DNA 3: GGGAGGCCCTGGCGTTGCCCGGCTTAGTCGCC | binds | binds | –
Pho-Flap (dsDNA, strand 1 3'-terminal C is FAP-dCMP) DNA 1: GGCGACTAAGCCGGGC DNA 2: GATAACAACGCCAGGGCCTCCC DNA 3: GGGAGGCCCTGGCGTTGCCCGGCTTAGTCGCC | – | – | binds

— publication PMC6535076, “Poly(ADP-ribosyl)ation and DNA repair synthesis in the extracts of naked mole rat, mouse, and human cells”
